Data on 1 molecule can be found in patent publication US20050250090A1, “Assay systems and methods for detecting molecules that interact with SK2 channels” (priority 2003, published 2005).

The target of this assay is human SK2 isoform hSK2A+ (small-conductance calcium-activated potassium channel protein), stably exp (human), Q9H2S1. In words: cell-based or functional assay.
Sequence of human SK2 isoform hSK2A+ (small-conductance calcium-activated potassium channel protein), stably exp (human), Q9H2S1 (Q9H2S1 other isoform, or with tags, fused parts or gaps): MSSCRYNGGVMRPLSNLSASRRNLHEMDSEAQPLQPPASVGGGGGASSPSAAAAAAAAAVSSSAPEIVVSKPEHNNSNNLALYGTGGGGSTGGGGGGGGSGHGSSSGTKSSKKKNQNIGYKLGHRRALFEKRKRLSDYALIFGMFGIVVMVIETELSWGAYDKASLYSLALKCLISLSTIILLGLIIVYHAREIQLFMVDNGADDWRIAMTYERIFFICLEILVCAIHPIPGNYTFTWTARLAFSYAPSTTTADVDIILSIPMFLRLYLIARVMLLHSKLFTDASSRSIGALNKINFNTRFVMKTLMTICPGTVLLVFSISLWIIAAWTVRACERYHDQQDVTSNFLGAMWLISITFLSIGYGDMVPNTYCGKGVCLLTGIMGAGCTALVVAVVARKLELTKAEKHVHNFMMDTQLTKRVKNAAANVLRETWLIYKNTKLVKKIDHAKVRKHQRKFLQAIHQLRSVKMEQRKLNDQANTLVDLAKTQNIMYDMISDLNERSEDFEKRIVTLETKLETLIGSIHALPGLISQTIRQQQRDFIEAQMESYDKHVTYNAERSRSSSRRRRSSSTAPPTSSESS

For the molecule AFCNLRMCQLSCRSLGLLGKCIGDKCECVKH (modifications not checked) [scyllatoxin, P16341 1-31], the magnitude of the ATP/Tg induced decrease in fluorescence; concentration printed as 'tested at' (FIG. 9 concentration series) worked out at 1.1 nM.
